This note sets out measurements from the supplement of paper PMC12764529.

Series [1] in a line: folding stability dG unfold (combined trypsin and chymotrypsin); higher = more stable. The essentials:
(§1)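 Only designs with AlphaFold2 dimer inter-PAE above 15 were retained; each was a mini-protein under 80 residues with no cysteine, in a PA-tagged cDNA display construct. After digestion with trypsin and chymotrypsin and sequencing, K50 was inferred by Bayesian fitting of counts, and unfolding free energy was derived per protease or combined against a sequence-predicted unfolded-state K50 and a shared folded-state K50.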

The nature of series [2]: folding stability dG unfold from chymotrypsin proteolysis; higher = more stable. The essentials:
as §1

Series [3] is described as follows: folding stability dG unfold from trypsin proteolysis; higher = more stable. The essentials: as §1

± gives the half width of the 95% confidence interval.

Turning to “SAGGSQRFRITELVVPEDDGNLFIRVRGPNGKSMFMPASDIEKARKNGKEIEFPFPNGQPFEVEIISAGGSA [r2_301_TrROS]”, the “folding stability dG unfold” value in series [1] was -0.411 ± 0.33 kcal/mol; in series [2], -0.461 ± 0.66 kcal/mol; in series [3], -0.34 ± 0.44 kcal/mol.
On to “SAGGSRTVLLYDPDNPRPYIVEYDPATGTLRIYDPETGELVAEFPIPDLKDIEAPVVPNGILLGAIVDSAGG [r13_720_TrMRF]”, for which the “folding stability dG unfold” value in series [1] was determined as 1.68 ± 0.075 kcal/mol; in series [2], 1.998 ± 0.018 kcal/mol; in series [3], 1.03 ± 0.023 kcal/mol.
For “SAGGSSGSIDRVELLSFDPEKGIALVRFPSFGSIQVIPIPPGKNSLKVKVINKNGEPFEFTFSLPLSAGGSA [r2_132_TrMRF]” the same measures were 3 ± 0.07 kcal/mol, 3.1 ± 0.043 kcal/mol and 2.82 ± 0.082 kcal/mol.
Regarding “SAGGSSITVTDETTVEVSPTGSPTGPPVATVTTTTSTTTTTYYDPKTGTSTETTTTTTTTTTSTGASAGGSA [r2_269_JUSTAS]”, the “folding stability dG unfold” value in series [1] stood at 0.382 ± 0.15 kcal/mol; in series [2] it was 0.192 ± 0.11 kcal/mol; in series [3], 0.603 ± 0.067 kcal/mol.
Regarding “SAGGSSMEVEIDTSKSTTTYTHPSGEKVATRSLVLTPPSPGDPLRFLNVEFEKLPDGSVVVKKIVGSAGGSA [r2_362_JUSTAS]”, the figures for the “folding stability dG unfold” value in series [1], in series [2] and in series [3] were -0.0806 ± 0.22 kcal/mol, -0.142 ± 0.32 kcal/mol and -0.338 ± 0.17 kcal/mol, respectively.
For “SAGGSSMYKTTTTPLSTFPVRDENGNFLEETKFEKTTVTYPDGSTVTVLKIEVGGKTFTLEVTPTPSAGGSA [r2_158_JUSTAS]” the same measures were 0.565 ± 0.18 kcal/mol, 0.952 ± 0.18 kcal/mol and 0.0145 ± 0.075 kcal/mol.
Taken in the same sequence, the figures for “SAGGSSPELAAERLAEELRRQGYAVREVVVTYDPAGTVTVSAVIEDPADPAATSTLTVTVPLAELGSAGGSA [r2_384_JUSTAS]” were 2.73 ± 0.046 kcal/mol, 2.91 ± 0.024 kcal/mol and 2.45 ± 0.059 kcal/mol.
Taken in the same sequence, the figures for “SAGGSSSLAIITIKPKEIKSYYNPNNPVVVSEMEFEVDITIYSDNEISPEKVKELIEEIEKAFPGIKSAGGS [r8_306_TrMRF]” were 2.32 ± 0.18 kcal/mol, 2.88 ± 0.11 kcal/mol and 1.31 ± 0.051 kcal/mol.
With “SAGGSSSSALVTVPRTETFPGTTLTTETLITIDPETGTVKVTSTVYSEGEPVEVVPSTVPAAEVTLSAGGSA [r2_188_JUSTAS]”, the “folding stability dG unfold” value in series [1] stood at 0.592 ± 0.077 kcal/mol; in series [2], 0.503 ± 0.051 kcal/mol; in series [3] it was 0.566 ± 0.036 kcal/mol.
Regarding “SAGGSSSSLIGEIKLPSNVTIKIERSSKGVRTAVVTFPETGKVVTLPLDPNVSIEEIIEKVKEIVEKKSAGG [r13_624_JUSTAS]”, the “folding stability dG unfold” value in series [1] worked out at 1.71 ± 0.066 kcal/mol; in series [2], 1.29 ± 0.043 kcal/mol; in series [3], 2.06 ± 0.093 kcal/mol.
In the case of “SAGGSTITTDVPEARELLEELVKAGIKNIKVTVELDGSTVTLEVPPDELEKLVEEIPPEAKVTLEASSAGGS [r16_636_JUSTAS]”, the “folding stability dG unfold” value came out at 1.12 ± 0.062 kcal/mol in series [1], 1.44 ± 0.041 kcal/mol in series [2] and 0.442 ± 0.019 kcal/mol in series [3].
Consider “SAGGSTVSVVPFPDYLLVVTTDVRRTPVPDTDTVSTELTTTVTVIPLPDVPPPVLPFLDADGNPYYASAGGS [r8_46_TrMRF]”, for which the “folding stability dG unfold” value is 0.694 ± 0.093 kcal/mol in series [1], 0.522 ± 0.11 kcal/mol in series [2] and 1.01 ± 0.093 kcal/mol in series [3].
Taken in the same sequence, the figures for “SAGGSVDIKRIEIYHPPDDKIYIRIDAVASPEHPEDPELRKAQAEALRKPVIEELMKKLGIEPEELSAGGSA [r2_306_JUSTAS]” were 0.468 ± 0.12 kcal/mol, 0.61 ± 0.073 kcal/mol and 0.241 ± 0.075 kcal/mol.
For “SAGGSVEIWILLPPNNPDLDKIREKLRDEPGIDDVNVKVVKPTPGYWVFEIEVNGDPEVADKIRDLISAGGS [r16_394_TrROS]”, the “folding stability dG unfold” value in series [1] is 1.51 ± 0.26 kcal/mol; in series [2], 1.61 ± 0.18 kcal/mol; in series [3] it was 1.09 ± 0.1 kcal/mol.
For “SAGGSVRVETEFERLPDGPIVVRVRITLPNGETLEFTAVYYPEPSGIPMFVPEPVPPNAIEGIDIKVSAGGS [r16_95_TrMRF]”, the figures for the “folding stability dG unfold” value in series [1], in series [2] and in series [3] were 2.11 ± 0.16 kcal/mol, 1.78 ± 0.047 kcal/mol and 2.55 ± 0.09 kcal/mol, respectively.
